Measured values: paper PMC6953194

Tests used:
Experiment in all cases: SPR
[1] = target: VRC01 antibody derived from HEK cells (VRC01HEK) (human)
[2] = target: VRC01 expressed transiently in WT N. benthamiana (VRC01WT) (human)
[3] = target: VRC01 expressed in the ΔXT/FT N. benthamiana plant line (VRC01ΔXF) (human)
[4] = target: VRC01 co‐expressed with human β1,4‐galactosyltransferase in the ΔXT/FT plant line (VRC01Gal) (human)
[5] = target: plant‐produced VRC01 variant lacking Fc N‐glycans, N297S (VRC01aglyco) (human)
plant‐produced VRC01 variant lacking Fc N‐glycans, N297S (VRC01aglyco) (human), sequence (light, as listed by the source, chain 2 of 2, other chains not shown): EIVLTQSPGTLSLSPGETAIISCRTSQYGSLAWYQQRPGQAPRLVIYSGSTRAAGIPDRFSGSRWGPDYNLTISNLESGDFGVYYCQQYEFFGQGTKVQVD

VRC01 expressed transiently in WT N. benthamiana (VRC01WT) (human), sequence (light, as listed by the source, chain 2 of 2, other chains not shown): as above
recombinant human FcγRI ectodomain, sequence (P12314 16-292): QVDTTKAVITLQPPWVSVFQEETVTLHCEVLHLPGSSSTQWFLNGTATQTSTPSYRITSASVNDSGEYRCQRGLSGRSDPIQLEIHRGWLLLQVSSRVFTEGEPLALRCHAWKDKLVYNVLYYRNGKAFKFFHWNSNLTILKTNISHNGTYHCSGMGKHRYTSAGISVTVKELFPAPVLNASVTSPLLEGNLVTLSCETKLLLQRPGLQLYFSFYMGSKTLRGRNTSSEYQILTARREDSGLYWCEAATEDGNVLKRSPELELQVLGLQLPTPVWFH
VRC01 expressed in the ΔXT/FT N. benthamiana plant line (VRC01ΔXF) (human), sequence (light, as listed by the source, chain 2 of 2, other chains not shown): as the sequence (light, as listed by the source, chain 2 of 2, other chains not shown) above
VRC01 antibody derived from HEK cells (VRC01HEK) (human), sequence (light, as listed by the source, chain 2 of 2, other chains not shown): as above
VRC01 co‐expressed with human β1,4‐galactosyltransferase in the ΔXT/FT plant line (VRC01Gal) (human), sequence (light, as listed by the source, chain 2 of 2, other chains not shown): as above

| Substance | Kd [1] | Kd [2] | half‐life of the antibody–FcγRI complex [2] | Kd [3] | Kd [4] | Kd [5] |
| --- | --- | --- | --- | --- | --- | --- |
| recombinant human FcγRI ectodomain (from UniProt P12314 16-292) (receptor) | 0.098 nM | 3 nM | 5 min | 0.247 nM | 0.558 nM | 71 nM |
| recombinant human FcγRIIb ectodomain (from UniProt P31994 43-217) (receptor) | 3400 nM | > 7000 nM |  | 2500 nM | 3700 nM |  |
